Data as given in paper doi:10.1101/2025.04.28.650926 (bioRxiv, 2025).
Where two headings read alike, the source gives them in different places.

Columns and labels:
[1] = biological target: T1, HSF1-WT monomer (SEC peak 3) (human, UniProt Q00613 1-529); assay: fluorescence polarization
[2] = biological target: T1, HSF1-WT monomer (SEC peak 3); assay: fluorescence polarization; remark: listed apart in the source
HSF1-ΔTAD = HSF1-ΔTAD (human, UniProt Q00613 1-409); assay: fluorescence polarization
[3] = biological target: HSF1-WT trimer/oligomer (SEC peak 1) (human, UniProt Q00613 1-529); assay: fluorescence polarization
Sequence of HSF1-WT trimer/oligomer (SEC peak 1) (Q00613 whole entry): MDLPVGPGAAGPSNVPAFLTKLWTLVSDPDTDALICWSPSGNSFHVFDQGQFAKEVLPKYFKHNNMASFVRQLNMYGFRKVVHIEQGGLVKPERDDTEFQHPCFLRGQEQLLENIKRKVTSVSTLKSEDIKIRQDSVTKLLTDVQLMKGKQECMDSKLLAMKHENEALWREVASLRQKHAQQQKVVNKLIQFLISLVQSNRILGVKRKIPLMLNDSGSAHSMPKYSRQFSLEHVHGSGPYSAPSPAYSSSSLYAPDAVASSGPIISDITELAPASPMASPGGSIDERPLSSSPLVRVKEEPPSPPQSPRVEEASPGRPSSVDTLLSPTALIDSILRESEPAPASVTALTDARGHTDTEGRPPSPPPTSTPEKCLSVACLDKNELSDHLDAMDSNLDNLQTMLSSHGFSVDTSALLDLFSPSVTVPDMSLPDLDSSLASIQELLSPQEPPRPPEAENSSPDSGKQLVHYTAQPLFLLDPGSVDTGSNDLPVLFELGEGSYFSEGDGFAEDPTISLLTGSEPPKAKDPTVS

HSF1-ΔLZ4-TAD [4] = biological target: T2, HSF1-ΔLZ4-TAD (human, UniProt Q00613 1-383); assay: fluorescence polarization
HSF1-LZ4m (HSF1-CT) = HSF1-LZ4m (HSF1-CT) (human, UniProt Q00613 1-529, M391K;L395P;L398R); assay: fluorescence polarization
HSF1-DBD = HSF1-DBD (human, UniProt Q00613 1-123); assay: fluorescence polarization
HSF1-ΔLZ1-3 (HSF1-CM) = HSF1-ΔLZ1-3 (HSF1-CM) (human, UniProt Q00613 1-129+204-529, internal_change); assay: fluorescence polarization
HSF1-ΔLZ4-TAD [5] = biological target: T2, HSF1-ΔLZ4-TAD; assay: fluorescence polarization; remark: listed apart in the source
native gel or EMSA = biological target: the molecule itself; assay: native gel or EMSA

B1: mHSE (mutant HSE) (dsDNA)
DNA 1: CCTGGCGTAGTCCCCGCCTGGC
DNA 2: GCCAGGCGGGGACTACGCCAGG
Work on B1 yielded a Kd [1] of 84.8 ± 14.2 nM.

B2: HSE (canonical three-site) (dsDNA)
DNA 1: CCTGGAATATTCCCGAACTGGC
DNA 2: GCCAGTTCGGGAATATTCCAGG
Binder B2 has a Kd [2] of 56.7 ± 4.62 nM, a Kd (HSF1-ΔTAD) of 60.3 ± 1.13 nM and a Kd [3] of 17.1 ± 6.28 nM. The Kd (HSF1-ΔLZ4-TAD [4]) was 22.6 ± 1.36 nM, the Kd (HSF1-LZ4m (HSF1-CT)) was 25.1 ± 8.09 nM and the Kd (HSF1-DBD) was 85.3 ± 6.29 nM. The Kd [1] was 7.98 ± 1.43 nM, the Kd (HSF1-ΔLZ1-3 (HSF1-CM)) was 6.57 ± 1.39 nM and the Kd (HSF1-ΔLZ4-TAD [5]) was 12.9 ± 0.335 nM.

B3: HSF1-LZ4mutant (LZ4m), constitutively trimeric/ oligomeric (CT) (natural protein, human, UniProt Q00613 1-529, looked up)
chain: MDLPVGPGAAGPSNVPAFLTKLWTLVSDPDTDALICWSPSGNSFHVFDQGQFAKEVLPKYFKHNNMASFVRQLNMYGFRKVVHIEQGGLVKPERDDTEFQHPCFLRGQEQLLENIKRKVTSVSTLKSEDIKIRQDSVTKLLTDVQLMKGKQECMDSKLLAMKHENEALWREVASLRQKHAQQQKVVNKLIQFLISLVQSNRILGVKRKIPLMLNDSGSAHSMPKYSRQFSLEHVHGSGPYSAPSPAYSSSSLYAPDAVASSGPIISDITELAPASPMASPGGSIDERPLSSSPLVRVKEEPPSPPQSPRVEEASPGRPSSVDTLLSPTALIDSILRESEPAPASVTALTDARGHTDTEGRPPSPPPTSTPEKCLSVACLDKNELSDHLDAKDSNPDNRQTMLSSHGFSVDTSALLDLFSPSVTVPDMSLPDLDSSLASIQELLSPQEPPRPPEAENSSPDSGKQLVHYTAQPLFLLDPGSVDTGSNDLPVLFELGEGSYFSEGDGFAEDPTISLLTGSEPPKAKDPTVS
B3: binds (native gel or EMSA).
